Measured values reported in patent US20220289837A1 (VIB VZW, published 2022).

Columns and labels:
[1] = molecular target: T1, 2PT-NBD1 (human CFTR nucleotide-binding domain 1, residues 387-646, with S492P, A534P, I539T) (human, UniProt P13569 388-646, biotinylated for the ELISA (sites not given)); assay: cell-based or functional assay
F508del-2PT-NBD1 [2] = molecular target: T2, F508del-2PT-NBD1 (human, UniProt P13569 388-646, biotinylated for the ELISA (sites not given)); assay: ELISA, biotinylated F508del-2PT-NBD1 on avidin-coated plate, T8 titrated, anti-His detection; normalised to the maximum of T8 on 2PT-NBD1
T2 construct: also called F508del-2PT-NBD1 mutant
Experimental: (§1) (a) Nanobody binding to 2PT-NBD1 measured by ELISA. Biotinylated 2PT-NBD1 was immobilized on avidin-coated plates and incubated with increasing concentration of each nanobody. Binding of nanobody was followed by immunodetection of the His-tag (see Methods). Representative curve of 3 independent experiments is shown. Error bars represent the standard deviation (SD) of duplicates. Data were normalized to maximum signal for each nanobody separately. (b) Nanobody binding to F508del-2PT-NBD1 measured by ELISA as described in panel a. (c) Nanobody T4 binding to 2PT-NBD1 and F508del-2PT-NBD1. Data were normalized to maximum signal of T4 binding to 2PT-NBD1. (d) Nanobody T8 binding to 2PT-NBD1 and F508del-2PT-NBD1. Data were normalized to maximum signal of T8 binding to 2PT-NBD1.
(§2) For dose-response assays, Nunc MaxiSorp 96-well plates (ThermoScientific), were coated with 5 μg/ml NeutrAvidin Biotin-Binding protein (ThermoScientific) overnight at 4° C. and blocked 2 h at room temperature (RT) with 2% milk in phosphate-buffered saline (PBS). […] 50 μl of 1-Step UltraTMB-ELISA (ThermoScientific) was used as a substrate for the peroxidase and intensity of the reaction was proportional to absorbance measured at 450 nm with SynergyMx (BioTek) after addition of 50 μl H₂SO₄ at 1M.

[3] = molecular target: T1, 2PT-NBD1 (human CFTR nucleotide-binding …); assay: ELISA, biotinylated 2PT-NBD1 on avidin-coated plate, T8 titrated, anti-His detection
Experimental: as §1, §2

[4] = molecular target: T1, 2PT-NBD1 (human CFTR nucleotide-binding …); assay: ITC, nanobody titrated into 2PT-NBD1 at 20 °C, one-site model
Experimental: Isothermal titration calorimetry (ITC) was used to characterize the thermodynamic parameters of the binding (FIG. 1e and FIG. 9). […] These KD values are similar to those measured for other in vivo matured camelid heavy-chain antibodies interacting with their ligands^{[20]}. The thermodynamic parameters of the interaction of nanobodies with 2PT-NBD1 were determined based on these ITC measurements (FIG. 1e and FIG. 9).
Interactions between nanobodies and 2PT-NBD1 was carried out on NanoITC system (TA Instruments) in 0.165 ml cells at 20° C., 300 rpm syringe stirring. Proteins were extensively dialyzed in 20 mM Hepes buffer pH 7.5, 150 mM NaCl, 10% (w/v) glycerol, 10% (w/v) ethylene glycol, 2 mM ATP and 3 mM MgCl₂ for 16 h at 4° C. Heat of dilution from control experiments of each nanobody titrated into buffer was subtracted from the titration into 2PT-NBD1. Data were integrated analyzed with Origin 7.0 software (Origin Lab Corp.).

[5] = molecular target: T3, Stabilized human CFTR (stab-CFTR: 2PT/ΔRI/R1048A_1172X) (human, UniProt P13569 1-1171, limits assumed); assay: cell-based or functional assay
[6] = molecular target: T1, 2PT-NBD1 (human CFTR nucleotide-binding …); assay: ELISA, biotinylated 2PT-NBD1 on avidin-coated plate, T2a titrated
Excerpt: (§3) The location of these nanobodies completely overlaps (FIG. 11a) with that of the C-terminal regulatory extension (RE) observed in previously published structures of NBD1^{[25,26].} The RE segment, comprising residues 654-673 was removed from the 2PT-NBD1 construct used for immunization and characterization. While the functional role of the RE is still unclear, it has been described to be a very mobile domain^{[27]}. […] This is consistent with RE being a dynamic region of CFTR.
(§4) For dose-response assays, Nunc MaxiSorp 96-well plates (ThermoScientific), were coated with 5 μg/ml NeutrAvidin Biotin-Binding protein (ThermoScientific) overnight at 4° C. and blocked 2 h at room temperature (RT) with 2% milk in phosphate-buffered saline (PBS). Each new reagent addition was preceded by three washes with 200 μl of NBD1 buffer (20 mM HEPES pH 7.5, 150 mM NaCl, and 10% (w/v) glycerol, 10% (w/v) ethylene glycol, 2 mM ATP, 3 mM MgCl₂). Then, biotinylated purified NBD1 proteins at 5 μg/ml were immobilized 30 min at RT followed by 1 h RT incubation with 100 μl various concentrations (0-20 μg/ml) of purified nanobodies. […] 50 μl of 1-Step UltraTMB-ELISA (ThermoScientific) was used as a substrate for the peroxidase and intensity of the reaction was proportional to absorbance measured at 450 nm with SynergyMx (BioTek) after addition of 50 μl H₂SO₄ at 1M.

[7] = molecular target: 2PT-NBD1-RE (2PT-NBD1 with residues 387-678, containing the regulatory extension) (human, UniProt P13569 387-678, biotinylated for the ELISA (sites not given)); assay: ELISA, biotinylated 2PT-NBD1-RE on avidin-coated plate, T2a titrated
Excerpt: as §3, §4

[8] = molecular target: T3, Stabilized human CFTR (stab-CFTR: …); assay: cell-based or functional assay; remark: listed apart in the source
F508del-2PT-NBD1 [9] = molecular target: T2, F508del-2PT-NBD1; assay: ELISA, biotinylated F508del-2PT-NBD1 on avidin-coated plate, nanobody titrated, anti-His detection
Experimental: as §1
For dose-response assays, Nunc MaxiSorp 96-well plates (ThermoScientific), were coated with 5 μg/ml NeutrAvidin Biotin-Binding protein (ThermoScientific) overnight at 4° C. and blocked 2 h at room temperature (RT) with 2% milk in phosphate-buffered saline (PBS). Each new reagent addition was preceded by three washes with 200 μl of NBD1 buffer (20 mM HEPES pH 7.5, 150 mM NaCl, and 10% (w/v) glycerol, 10% (w/v) ethylene glycol, 2 mM ATP, 3 mM MgCl₂). Then, biotinylated purified NBD1 proteins at 5 μg/ml were immobilized 30 min at RT followed by 1 h RT incubation with 100 μl various concentrations (0-20 μg/ml) of purified nanobodies. Signal detection was followed using His-tag specific antibody (Invitrogen, catalogue number: MA1-135, 1:3000 dilution) to detect the nanobodies and secondary antibody anti-mouse coupled to horse radish peroxidase (HRP) (Millipore, catalogue number: AP308P, 1:5000 dilution). 50 μl of 1-Step UltraTMB-ELISA (ThermoScientific) was used as a substrate for the peroxidase and intensity of the reaction was proportional to absorbance measured at 450 nm with SynergyMx (BioTek) after addition of 50 μl H₂SO₄ at 1M.

T1 sequence (P13569 388-646 V470M/S492P/A534P/I539T limits assumed): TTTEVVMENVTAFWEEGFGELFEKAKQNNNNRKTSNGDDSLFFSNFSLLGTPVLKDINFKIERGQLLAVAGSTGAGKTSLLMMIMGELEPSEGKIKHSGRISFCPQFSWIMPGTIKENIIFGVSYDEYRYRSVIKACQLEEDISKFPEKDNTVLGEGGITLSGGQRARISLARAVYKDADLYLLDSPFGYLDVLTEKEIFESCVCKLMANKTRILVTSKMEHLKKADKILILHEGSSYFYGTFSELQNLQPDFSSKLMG
T2 sequence (P13569 other isoform, or with tags, fused parts or gaps limits assumed, stated change not applied): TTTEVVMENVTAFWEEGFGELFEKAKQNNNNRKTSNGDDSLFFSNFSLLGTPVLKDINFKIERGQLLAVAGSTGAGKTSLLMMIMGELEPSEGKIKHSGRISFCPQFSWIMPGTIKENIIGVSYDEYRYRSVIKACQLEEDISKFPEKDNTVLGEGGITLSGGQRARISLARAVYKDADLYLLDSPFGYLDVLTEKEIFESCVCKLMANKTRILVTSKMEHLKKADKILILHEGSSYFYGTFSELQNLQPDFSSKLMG
T3 sequence (P13569 other isoform, or with tags, fused parts or gaps R1048A R1048A limits assumed): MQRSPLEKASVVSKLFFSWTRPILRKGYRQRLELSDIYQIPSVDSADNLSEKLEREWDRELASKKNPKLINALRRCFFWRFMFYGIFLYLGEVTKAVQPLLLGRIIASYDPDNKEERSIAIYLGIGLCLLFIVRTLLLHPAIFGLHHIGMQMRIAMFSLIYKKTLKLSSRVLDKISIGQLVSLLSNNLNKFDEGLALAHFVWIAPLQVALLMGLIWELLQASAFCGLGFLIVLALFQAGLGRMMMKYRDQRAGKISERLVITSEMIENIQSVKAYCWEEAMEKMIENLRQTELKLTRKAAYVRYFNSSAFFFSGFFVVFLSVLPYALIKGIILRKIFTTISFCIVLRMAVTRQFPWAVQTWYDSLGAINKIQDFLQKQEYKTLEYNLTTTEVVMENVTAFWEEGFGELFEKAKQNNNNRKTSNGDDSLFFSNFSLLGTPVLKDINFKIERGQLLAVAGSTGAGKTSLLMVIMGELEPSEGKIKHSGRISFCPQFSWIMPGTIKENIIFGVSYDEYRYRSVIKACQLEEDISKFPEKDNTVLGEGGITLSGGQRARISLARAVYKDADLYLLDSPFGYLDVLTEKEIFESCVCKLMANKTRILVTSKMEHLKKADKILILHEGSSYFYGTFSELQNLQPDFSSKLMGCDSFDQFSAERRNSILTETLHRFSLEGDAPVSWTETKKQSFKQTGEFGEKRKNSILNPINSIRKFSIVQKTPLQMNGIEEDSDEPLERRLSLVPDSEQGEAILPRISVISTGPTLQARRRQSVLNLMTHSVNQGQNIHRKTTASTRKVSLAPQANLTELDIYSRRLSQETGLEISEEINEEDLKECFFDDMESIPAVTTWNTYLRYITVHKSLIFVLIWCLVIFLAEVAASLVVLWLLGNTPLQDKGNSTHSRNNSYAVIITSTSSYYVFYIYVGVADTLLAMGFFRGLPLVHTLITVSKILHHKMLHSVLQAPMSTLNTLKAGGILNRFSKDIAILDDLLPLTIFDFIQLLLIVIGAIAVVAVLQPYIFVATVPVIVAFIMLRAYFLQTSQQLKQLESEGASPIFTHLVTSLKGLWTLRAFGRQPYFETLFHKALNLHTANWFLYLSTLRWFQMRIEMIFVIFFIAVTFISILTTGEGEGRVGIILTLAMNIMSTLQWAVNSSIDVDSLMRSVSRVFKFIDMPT
2PT-NBD1-RE (2PT-NBD1 with residues 387-678, containing the regulatory extension), sequence (P13569 other isoform, or with tags, fused parts or gaps limits assumed): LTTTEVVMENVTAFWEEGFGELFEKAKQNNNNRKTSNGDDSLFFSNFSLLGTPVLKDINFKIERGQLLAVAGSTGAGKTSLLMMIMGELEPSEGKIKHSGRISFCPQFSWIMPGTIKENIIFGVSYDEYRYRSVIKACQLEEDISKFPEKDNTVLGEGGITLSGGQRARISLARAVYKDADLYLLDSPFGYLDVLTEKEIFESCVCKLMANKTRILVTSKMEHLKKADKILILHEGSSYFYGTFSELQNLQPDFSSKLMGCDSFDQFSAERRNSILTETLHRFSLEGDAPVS

Binder	increase of Tm (thermal shift assay, DSF) [1]	binding result (F508del-2PT-NBD1 [2])	EC50 (read off the curve) [3]	ΔG [4]	ΔH [4]	thermostabilization (nanoDSF, Tm) [5]	EC50 (read off the curve) [6]	EC50 (read off the curve) [7]	Tm of stab-CFTR in complex with the nanobody (nanoDSF, first derivative of 350 nm fluorescence); 'stab-CFTR (51.4°C)', 'T2a (66.6°C)' alone [8]	EC50 (read off the curve) (F508del-2PT-NBD1 [9])
Nanobody T8 (VHH, not shown: small tags and cut ends, Llama nanobody; also called Nb T8; T8 Nb) VHH: QVQLQESGGGLVQPGGSLRLSCAASGSTSSINAMGWYRQAPGKQREPVAISSSGGDTRYAEPVKGRFTISRDNAQNKVYLQMNSLKPEDTAVYYCWLNWGRTSVNSWGQGTQVTVSS	9.3 °C	no binding (tested: log [T8] about -5.9 M)	~10 nM	-9.94 kcal/mol	-15.5 kcal/mol	–	–	–	–	–
Nanobody T2a (VHH, not shown: small tags and cut ends, Llama nanobody; also called Nb T2a; T2a Nb) VHH: QVQLQESGGGLVQAGGSLRLSCAASGSIFRIDAMGWYRQAPGKQRELVAHSTSGGSTDYADSVKGRFTISRDNAKNTVYLQMNSLKPEDTAVYYCNADVRTRWYASNNYWGQGTQVTVSS	11.2 °C	–	–	-9.7 kcal/mol	-13.8 kcal/mol	8 °C	~7 nM	~10 nM	59.7 °C	~10 nM
